Results on two sequences are retold here after article PMC7215426.

Series [1] concerns the target T1, C-reactive protein (CRP) (human) (UniProt P02741).
T1 sequence: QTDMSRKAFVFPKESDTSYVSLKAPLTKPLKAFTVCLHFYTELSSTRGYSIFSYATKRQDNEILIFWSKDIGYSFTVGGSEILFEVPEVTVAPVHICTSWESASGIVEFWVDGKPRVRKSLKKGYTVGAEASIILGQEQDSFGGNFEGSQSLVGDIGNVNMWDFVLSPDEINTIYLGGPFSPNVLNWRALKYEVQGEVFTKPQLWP
Nature of the series: SPR. Conditions: Ugu; SPR (ProteON XPR36) at 25 C in SB: 40 mM HEPES pH 7.5, 125 mM NaCl, 5 mM KCl, 1 mM MgCl2, 0.01% Tween 20; aptamer immobilized via 3' A20/T20 hybridized to ….

Series [2] addresses Lactate dehydrogenase-5 (LDH-5) (human) (UniProt P00338). Nature of the series: SPR. Conditions: Aad; SPR (ProteON XPR36) at 25 C in SB: 40 mM HEPES pH 7.5, 125 mM NaCl, 5 mM KCl, 1 mM MgCl2, 0.01% Tween 20; aptamer immobilized via 3' A20/T20 hybridized to ….

For “CGCACATCAGTTTAGCTAGTTCTGCCTTAATATGGTCGGTTAAGCGCA [CRP-Ugu4-3]”, the Kd in series [1] worked out at 6.2 pM.

Take “TGCTGCTGGCTCGTGAGACGGATATCAGGTCTCCTAAGGCTGGC [LDH-Aad1-3]”: the Kd in series [2] stood at 0.235 nM.

Broadly, the Kd is a measure of binding affinity in units of concentration. High values mean lower affinity, low ones higher affinity.
